Biological target: ApoE2 (C112S, C158S, A102C), labeled with Alexa488 or Alexa546 at position 102
Assay: FRET or BRET

- k−1 (dissociation, dimer to monomers): 0.00066 s⁻¹
- k−2 (dissociation, tetramer to dimers): 0.0036 s⁻¹
Substance: ApoE2 (C112S, C158S, A102C), labeled with Alexa488 or Alexa546 at position 102 (natural protein)

Source: PMC3038193
